The results in this text go back to the NTF2 design screens of Basanta et al. (2020).

The nature of this series: protease stability score; higher = more stable; yeast display proteolysis, trypsin and chymotrypsin.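 Note: relative to predicted unfolded state with 0 unfolded-like and 1 meaning tenfold more protease.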
“SELHKHVKHLAEHFWHLLETGDWEKMTKNADPNDRLDIHIGDKDIHNHGRERSLKTWTELEREMGIDHLTLRHRDLQGDKVIIHTESVFDGRHVKVEIIVVVINGRLKRVEVRFE” came in with a protease stability score of 0.767.

“SELIKVSRHAMEILVHSWLTGDWERSEELVDPHARTQYGDKHVHGMELFEEIFKEELDRVKGMRLEIIIRRVDLQGNKAEVDGEFRNHVNGVDVRRRMHVELVVVNGVVESTSIRIQ” had a protease stability score of 0.453.

Consider “SELIRASETMMKAIADSEETGDWRLLRELFDPHVRIEIGDKKYHGWKYLKHFMEELRIESRTELEHVDTFDGKVRVEGTLTTDLRVNGQEHTINLDIRSIIVKIDGRWIIHKVKIH”, for which the protease stability score is 1.14. Then “SELKEEVDRWAKRFIHAVETGDEDTILKFMDPHVKSSVGEKVHHGREFLIIIWRELRIRHFTVHHIRVDEDHLIIHMEWQGHVNGKEIRLEVDLFIRKVDGVWIMKHIEIR”, with 2.03; and “SELKEILRKAIELLLRLWVTGDEEELLELFDPNVKLVIGDKIFIGREEFEKVSRHARVKRSDINDFRVQGDKITYDTRMDGHVNGKDIDTTVDIIAVKIDGRWFNHSIIVH”, with -0.093; and “SELKESATDIMRIYIEAWLTGDFEEITRLADPRMRVINDFNGRTQVNHGRELFRETLKHWRIKHVHIDDMRSFEGRSESHGTVHGQFNGVEDEVRFEVRMVVVDGVLHSMTIIFK”, with 1.18. Take “SELKNWARIIAERVTDELNTGNEHRLRELFDPNVKIRIDGRDFHGMDTLRRFFEELRITHTHWEHKDMHLIGDKALLHGTLKINILQGDKTHETTFDVRIFVIKVNGRWSYEHMEID”: the protease stability score was 1.22.

For the sequence “SELKQAIDDLIRRFEHIYHTGNEEIWERLADPNTRIDIDGQEIIGREQATRERREEMKKLGVERVEVELRLRNVEVVGNKLHLDGELILRYGDKTVVIDSKINLQKINGRWVIREEIYH”, the protease stability score turned out to be 1.04. As for “SELNEISEEAVEWFRKVLLTGNEDLLLNLADPNVRYEVGDKRRVGRESMIEQIQHFLHEMGINHIHSVHIRDVRIQGDYIEVDSELETTVNGQKMYIHMFLRARKIDGKWILDRIYVH”, the protease stability score worked out at 1.02. Then “SELNEKLKHLIELHWRVLETGDEHMMTRLLDPHARLEYGDKELHGREEVTHWHYEILEKVKNLQIHLSDYRIVNGQIHLHVVENVNGVTTRRFINIEKIDGRWHDREIRIE”, with 0.757; and “SELNHSVRRAIEIFERVSKTGDEREIRDLADPNVKLDFDGREHHGWEWFVRFMKEIRIKDHRIRDVELIGEFVIIHGELEMEINGVDIRTEVEFYVFKINGKWYLKRLIIR”, with 1.92. Next, “SELSEDLDMYIKIFLRHTETGDEESVRDFADPHAKLEIGDKTFHGRETFLDWFLDLRDRIPNITVRIHEVRIIGDKIHIDLEIIIGEKRTRIHLKIFKVDGVWVLKSLRIN”: 1.58; “SEMDEASKLALKLLEHMVRTGDEHLSEHLVDPHARLFQGDKVEWGRERMTRQLHEWRVRDFKLKRVHVYNGRIEVDGVLNGTVDGVDENRDVRLIITKIDGQWLIKSVIIE”: 0.474. Then “SEMDENIHEALKEEMHAWVTGDFDKIEHLLDPNTRVEQGEFIYHGRFFVEFVRRRVDHVFWHHVEIRHIENVDGRMIIDGIVDFEETAENHRHRHTIRTIIYLEKIDGKWYIRSLEVK”, with 0.874; and “SEMEDIAEEWAELILHLWHTGDEDKLWKLADPNTREHVNGRNLHGREEIVRIIVHEMVEMRIKFRPHDVRVQGDKVIIDGIKEIHIDGKEIRIRIEIVIVVINGRYHSSELTVH”, with 1.04. Take “SEMEEESHKVVEYATHVFATGDEHLMRKNFDPDVKLDYNGKHFHGWEEFVKLMQTLREKYGVKHVKRVEIEDIRIIGNKVEVDTRVVQNVDGVPFELEITLILIKIDGKWRNHSSRIR”: the protease stability score amounted to 0.037.

Take “SEMEEEVRRAMKSFIKDLETGNEKSNHENVDPHARLLINGQEFHGMEHVSRWINKAGIDHFEIDEFRIIGNKIRIDGTITFNGQQHKVRIDVVKVDGRWLVKSLEII”: the protease stability score stood at 1.29. Next, “SEMEEHAERVWRIMLTLLLTGDEEKFNHLADPNTRLIIIIGDKELHFHGRHEISNYLHRYLREIRIDHFHEHSITVQGNWVHTDGIMLGRFDGKRHEIRVHIHLIVIDGRIKEIYLENR”: 1.64; “SEMEETAKTVYKRWFDMLHTGDEELLTRFMDPHVRVQQGDKEIVGWELVVTHNRHLRYEDSHLKDIETQGDKVIIRGELVLTIGDKRFTIDVEILAQKVDGRWILKSVRFS”: 0.035; “SEMEETLKKAFHNLLEHIKTGDEQLLKEFLDPNTKVEVDGVELIGMEKFIELMREIEKRVDVIRSLELEHWEVVGNKIRMEVRLNIEINGKDTFTRTHLIALKVNGRWILHSVRIG”: 1.75. “SEMEEVAVREWEILVKALRTGDERIISELMDPHARVDYNGRQLHGREEVKKFLEEIRIVTHHTEIKDHEYQGNKLIMHGHVDVENEYGDKTERIDTHIHIILRKVNGRWFITEIDIR” registered a protease stability score of 2.53.

Regarding “SEMEEVYKRWVDLFRHAMDTGNEDLHLHLLDPHVRININGVELIGRDDDRDHLERLRKELGVSRFEMRVRIRDVDIQGDKIRSETEFTVIFNGREIIIKTRLILEKVNGRWILRSLEYN”, the protease stability score was found to be 1.39. Then “SEMEHNLLEFIEHLLRNWRTGDEDREHELADPHYRIDVNGVELHGMEYLLEMFRRLGIDHMEFELKRSTVVGDFAIVDGNLQFHVDGKWERRKVKMVNKKVDGRWHHTQFSVN”, with 1.5; and “SEMEHQSRKILEDTLRQWLTGDWHSLHELMDPNTKLDVGDKHFHGREAVKVFLERADHVKDLQIDHMRIQGDKIETDVHMHVTVGDKEKDVEVELIVLKVNGKWLLRSASIK”, with 1.22. Consider “SEMEKLYRDLYKRFLDNWVTGDEEKLIKYADPNTRLHVGDKHHHGMEHISHLFLEFVYRADHHEYRIDRLEVVDGVAISDGRMREEIGEFELRFDVEIRIVIVNGRLKWIEVSFK”, for which the protease stability score turned out to be 0.839. Next, “SEMENLAREALRIIFHNVLTGDEEEFIRMADPNVRFDINGVEYHGWKRVLQELQRFKGLRIHHIHLEDMDNQGDKIIIYSKLEVHYNGVHTELTVEFISEKVNGRWILRMVVFH”: 2.47. Then “SEMHEATEHLLKLWVHIFETGNEKWFNKLADPDYRSRILYGDKELKSHGRENVVEVLYRWLKHFGFDHVRLEDEHIQGNKVHLHFRVQVNGRHHELDLNIDMVNGKIRHVEVILH”, with 1.5; and “SEMHEDAEEVLRRISHYLNTGDEDSFLEMADPHTRIRVGNKEYIGREWSLVLIEKVKGARQEIRIELKDVNLVNGRLEVDGRFRLHYRFNGKTVDEHRNVIVYSYKFNGRWEIKSEQVD”, with 1.49; and “SENDELNEKLVRDWIISLHTGDEETLRDLLDPHVKVEVGEKRMHGREEYVTHLLHHARRADHIRIEIHQVHNQGDKVNIDGTLHIDVNGKHQHHRVTIIASKVNGKWLIESINIH”, with 1.03. In the case of “SENEETAEDVIELVIEAWVTGDEDLFLSLLDPRVRLEVNGVHHHGRERVLEEIIKNLETLGVDHIEIRIREIKLIGEWVEIHGELIYRYNGVHERRDVEIIAFKFNGRWVLRSLRVR”, the protease stability score is 1.82. Then “SENEKILHDLSKELFDIYHTGNEERWSEMADPHVKIDVNGQEYHGREEVEEELEHWRRRFKNARYEIHKIHVFDGRLLIEGHINIDGKKRQIHFRIHVVNGKIKEMRIEIR”, with 1.82; and “SENEKRMRELAEIILISWWTGDEDTLKDLADPRTRVNIDGVDLIGMELTSEFLERHLREMRIHSIELESITVIDGQAHIHLEVDTVVNGVRIRTKIHILVVTVDGRLKSEHYHRR”, with 0.446. In turn, “SENHKLSREALEHFLHLVHTGDFEKIYHMLDPNVKSEAENHHDHGMRDVVHLWRTMGIDHIRVHEVRIFENHLDVDMISIVGDKHFRLNIHIRKVNGRWQTELVRVN” came in with a protease stability score of 1.8.

For “SENHRNLLEWARIALEALITGDWKMLLDLLDPNVRFIFNGVHLHGMEHVFHRMTREIKEIRIKFEVHDMRSIGEKVEMDTRRHVEVNGVETTIDTRVHVVVIDGVIHEIRIEHR”, the protease stability score was 1.1.

With “SENKRVAVEWVRDFLRALRTGDEDRVRQLADPHVRIDFNGRDHHGRHFLVRMLREIRIHDVRIRDVDVQGDFLITELEIDVEIDGKRDTLRMNIIFEKVDGRWMVSEVQFE”, the protease stability score turned out to be 1.5. In turn, “SEQDEMAEKWVHMFLHSWFTGDEDFFETLLDPNVQLIVNGKHHHGREDVKRFLHEEYRRIDHIEDFHLRRLEIQGDFARLDGEVIMIVNGRRHEFRVEIRLFIVNGKMRSIEINEE” registered a protease stability score of 2.23. Next, “SEQEEITKKATEDMLRNIETGDPDMIDHLLDPDVRQEIIINGRSHENHGMEKLRKWLSTWHDEFKNVKYDLRTVEIIDGRVRIEGVLNVDGVDLHIEIRLVIVNGKLREVYHHVD”: 1.36; “SEQEELSKKFFHDLLHAMKTGDESSLYSFLDPNMKHEFDGKVIHGMEEVARIIVEKLERADHHDIRIHDEKMQGDYLVMDVRIIINIDGKEVIKDIKLTWLKIDGRWHVTSVVLH”: 1.73. Sequence “SEQEERETRFMEKAWDLLRTGDEHLLERLADPNARLEIDGRKKHGRETIIEYFRHVKEHLGFKHIELHHMHLVDGVLHIDGIFRYGDKTHRTEIVYYVVNGRLERIEIIIL” displayed a protease stability score of 1.22. Next, “SEQEESRRWWLEELLTFLVTGDENRLKELLDPDVRVVVNGKHLHGMEAFEEYLRQIDHVDSHKVTDVKVQGNKIIVHTRAKINVDGRHVETELIFIVHKIDGKWKLHSFESR”: 1.69. Next, “SEQEEYLKEYAKHFYEFLLTGDEDWLKRLFDPEARLTVEVGDKTEHLHGREEVSKFWKHLLTEMRIEMTLKDLDSQGEFIVSVTELNINIDGKTIHTRMEIILVVVNGRLREVELRIK”: 2.3.

Take “SEQEHFDRLAFKLLLHSIHTGDWRLLTEEFDPNTLIIIGEKIHHGMEFVREHIEVLGADHVDIEIHIRHVRHQGNKADMDMQVDIDIDVNGRRIRIRSRRRYISLKVDGRWVTTSLEIK”: the protease stability score is 0.939. Then “SEQEKELQDALEILMHRWLTGDEDFLYEMMDPNVRFTINGQDFHGRDFFRQKWKELGLTRVEIDLKFVRLQGDKATVHGHINFNGRTTDVIMYIDKVNGVWITKTIEFR”, with 2.17; and “SEQERKVREWTEEEIRWFLTGDEDIWSHFADPNARSVHHIGNKTIHTHGMEDVTRVIRELLQELGADHRTVHELEIQGDKSTVNLEIRIGDKTYEVHIIIIIINGKRKYHIVHFRVQ”, with 0.982; and “SEQHEITEHIARIILEFLTTGDFTEFFKMLDPHVRITVGDKFNVGRHVFWHLWQELFDHIRIRHISLKHIHIVDGRLHLDTRVHGKVDGKETTLDQHIHIEIINGRITSVNLEYR”, with 2.12. For “SEQHKIAQEMAERILELWQTGDEDTFRYLADPHYRLHIIINGKHHDHHGREEWDKWYRELLDRIDHVRLIWRSVETQGDKLRVDGELVLIIDGKRIVEKVHLEFRVIDGVLRHETIKVR”, the protease stability score came out at 1.48. Next, “SEQSKHVKDMFDTWVHSERTGDWRVAKELVDPNARIDINGREFHGMEEAERLAHEIFTRIDHKELRIDHVHFINGVFKVEGTVIFRQGDKQFTIETRIHLFVINGRLKELKVEFI”: 1.15.
